Measured values: article PMC9482650, “Quantitative fragmentomics allow affinity mapping of interactomes” (Nature Communications, 2022)

B1: SLC4A7, Q9Y6M7 (peptide)
chain: KKYVDAETSL
B2: ATP2B4, P23634 (peptide)
chain: SSLQSLETSV
B3: TMIGD1, Q6UXZ0 (peptide)
chain: DKDPHSETAL
B4: HPV30-E6, P36809 (peptide)
chain: RHTTSTETAV

Tests used:
Assay in all cases: holdup assay
Design in all cases: key: below the threshold = too weak to quantify, mostly under pKd 3.1 to 4
Settings in all cases: plain residues with an end cap or a label only (N-terminal biotin on a linker: ttds)
[1] = target: GRIP2_7, Q9C0E4
[2] = target: T1, MPP2, Q14168
T1 sequence (Q14168 180-250, limits assumed, looked up): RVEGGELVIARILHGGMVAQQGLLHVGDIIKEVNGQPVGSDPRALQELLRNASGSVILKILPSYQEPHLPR

[3] = target: T2, GRIP1_4, Q9Y3R0
T2 sequence (Q9Y3R0 467-571, limits assumed, looked up): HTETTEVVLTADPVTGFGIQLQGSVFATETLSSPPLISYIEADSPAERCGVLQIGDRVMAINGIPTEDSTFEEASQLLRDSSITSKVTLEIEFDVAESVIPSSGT

[4] = target: LIMK2, P53671
[5] = target: SCRIB_3, Q14160
[6] = target: NOS1, P29475
[7] = target: DLG1_2, Q12959
[8] = target: T3, APBA1_2, Q02410
T3 sequence (Q02410 742-832, limits assumed, looked up): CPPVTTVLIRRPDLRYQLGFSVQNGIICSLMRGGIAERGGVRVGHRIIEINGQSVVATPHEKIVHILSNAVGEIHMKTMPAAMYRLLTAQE

[9] = target: MAGI2_6, Q86UL8
[10] = target: T4, PDZD2_2, O15018
T4 sequence (O15018 329-429, limits assumed, looked up): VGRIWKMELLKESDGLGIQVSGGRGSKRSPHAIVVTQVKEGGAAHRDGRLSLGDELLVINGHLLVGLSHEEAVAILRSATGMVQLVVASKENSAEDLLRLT

[11] = target: T5, LIN7B, Q9HAP6
T5 sequence (Q9HAP6 88-185, limits assumed, looked up): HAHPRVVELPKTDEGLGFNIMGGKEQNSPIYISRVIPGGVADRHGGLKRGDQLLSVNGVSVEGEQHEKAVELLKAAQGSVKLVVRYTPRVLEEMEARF

[12] = target: T6, GRIP1_7, Q9Y3R0
T6 sequence (Q9Y3R0 999-1096, limits assumed, looked up): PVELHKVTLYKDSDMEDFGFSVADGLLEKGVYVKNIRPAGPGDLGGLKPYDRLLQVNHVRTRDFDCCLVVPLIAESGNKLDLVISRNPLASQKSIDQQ

[13] = target: T7, SNTG2, Q9NY99
T7 sequence (Q9NY99 68-166, limits assumed, looked up): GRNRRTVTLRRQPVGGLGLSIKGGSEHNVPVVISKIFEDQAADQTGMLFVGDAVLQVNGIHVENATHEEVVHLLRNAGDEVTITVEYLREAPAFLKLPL

[14] = target: DLG4_2, P78352
[15] = target: PARD3_3, Q8TEW0
[16] = target: T8, PTPN13_1, Q12923
T8 sequence (Q12923 1088-1188, limits assumed, looked up): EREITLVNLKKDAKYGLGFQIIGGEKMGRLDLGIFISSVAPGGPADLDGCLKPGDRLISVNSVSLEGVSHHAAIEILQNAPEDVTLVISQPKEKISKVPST

[17] = target: FRMPD2_2, Q68DX3
[18] = target: AHNAK1, Q09666
[19] = target: NHERF4_2, Q86UT5
[20] = target: GRID2IP_2, A4D2P6
[21] = target: MAGI2_4, Q86UL8
[22] = target: T9, NHERF3_4, Q5T2W1
T9 sequence (Q5T2W1 373-468, limits assumed, looked up): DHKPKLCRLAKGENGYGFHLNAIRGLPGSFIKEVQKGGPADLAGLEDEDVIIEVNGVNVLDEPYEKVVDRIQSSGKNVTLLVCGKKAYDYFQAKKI

[23] = target: T10, MPDZ_12, O75970
T10 sequence (O75970 1857-1958, limits assumed, looked up): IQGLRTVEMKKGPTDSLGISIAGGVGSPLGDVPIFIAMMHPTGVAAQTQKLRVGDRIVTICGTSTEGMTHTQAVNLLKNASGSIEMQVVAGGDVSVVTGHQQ

[24] = target: T11, DLG3_3, Q92796
T11 sequence (Q92796 374-475, limits assumed, looked up): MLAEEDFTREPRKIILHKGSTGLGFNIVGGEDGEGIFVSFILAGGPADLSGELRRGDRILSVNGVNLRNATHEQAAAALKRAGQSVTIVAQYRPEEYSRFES

[25] = target: FRMPD2_1, Q68DX3
[26] = target: FRMPD4, Q14CM0
[27] = target: LNX1_3, Q8TBB1
LNX1_3, Q8TBB1, sequence (Q8TBB1 500-596): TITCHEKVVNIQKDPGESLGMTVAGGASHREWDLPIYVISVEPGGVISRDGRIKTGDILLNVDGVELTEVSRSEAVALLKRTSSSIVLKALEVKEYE

GRIP2_7, Q9C0E4, sequence (Q9C0E4 934-1023): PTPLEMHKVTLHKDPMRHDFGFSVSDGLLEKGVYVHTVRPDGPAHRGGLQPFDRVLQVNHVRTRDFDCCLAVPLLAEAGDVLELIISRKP
GRID2IP_2, A4D2P6, sequence (A4D2P6 272-370): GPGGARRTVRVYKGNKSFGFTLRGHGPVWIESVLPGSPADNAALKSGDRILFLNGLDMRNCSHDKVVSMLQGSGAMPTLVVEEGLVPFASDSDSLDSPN
MAGI2_4, Q86UL8, sequence (Q86UL8 772-865): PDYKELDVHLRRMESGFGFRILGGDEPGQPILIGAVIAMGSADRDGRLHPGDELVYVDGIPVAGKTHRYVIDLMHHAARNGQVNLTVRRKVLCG
FRMPD4, Q14CM0, sequence (Q14CM0 67-160): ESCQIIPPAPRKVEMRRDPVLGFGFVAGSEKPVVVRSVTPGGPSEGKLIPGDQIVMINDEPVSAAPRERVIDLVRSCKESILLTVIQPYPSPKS
PARD3_3, Q8TEW0, sequence (Q8TEW0 582-685): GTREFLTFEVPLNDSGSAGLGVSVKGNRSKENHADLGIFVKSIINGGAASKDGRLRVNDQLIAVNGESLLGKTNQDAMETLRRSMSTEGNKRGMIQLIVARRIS
NHERF4_2, Q86UT5, sequence (Q86UT5 220-308): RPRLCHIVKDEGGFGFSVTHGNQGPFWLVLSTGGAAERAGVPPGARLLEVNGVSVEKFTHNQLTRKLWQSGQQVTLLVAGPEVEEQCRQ
DLG4_2, P78352, sequence (P78352 155-259): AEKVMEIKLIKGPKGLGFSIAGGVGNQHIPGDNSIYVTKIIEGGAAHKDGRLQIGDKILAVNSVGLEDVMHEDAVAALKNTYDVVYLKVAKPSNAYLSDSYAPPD
AHNAK1, Q09666, sequence (Q09666 4-100): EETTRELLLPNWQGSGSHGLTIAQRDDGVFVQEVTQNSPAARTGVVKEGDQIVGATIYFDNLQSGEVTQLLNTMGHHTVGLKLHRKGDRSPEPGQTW
SCRIB_3, Q14160, sequence (Q14160 999-1103): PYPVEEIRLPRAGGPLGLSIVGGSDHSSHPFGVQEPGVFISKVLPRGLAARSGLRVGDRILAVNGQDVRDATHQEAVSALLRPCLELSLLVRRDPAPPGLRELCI
NOS1, P29475, sequence (P29475 9-101): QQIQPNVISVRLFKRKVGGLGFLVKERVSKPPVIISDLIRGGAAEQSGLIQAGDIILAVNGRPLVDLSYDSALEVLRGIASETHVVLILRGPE
LIMK2, P53671, sequence (P53671 143-248): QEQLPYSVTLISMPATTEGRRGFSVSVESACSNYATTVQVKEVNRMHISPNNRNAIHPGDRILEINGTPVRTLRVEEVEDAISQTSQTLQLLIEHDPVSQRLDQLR
MAGI2_6, Q86UL8, sequence (Q86UL8 1141-1229): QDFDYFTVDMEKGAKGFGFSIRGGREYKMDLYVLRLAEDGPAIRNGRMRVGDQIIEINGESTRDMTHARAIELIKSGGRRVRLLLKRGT
FRMPD2_2, Q68DX3, sequence (Q68DX3 944-1038): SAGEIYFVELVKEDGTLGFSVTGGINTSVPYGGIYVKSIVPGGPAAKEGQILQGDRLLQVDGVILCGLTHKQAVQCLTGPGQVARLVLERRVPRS
FRMPD2_1, Q68DX3, sequence (Q68DX3 770-861): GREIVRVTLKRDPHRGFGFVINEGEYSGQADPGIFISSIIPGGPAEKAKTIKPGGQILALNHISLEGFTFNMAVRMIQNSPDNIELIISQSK
DLG1_2, Q12959, sequence (Q12959 314-412): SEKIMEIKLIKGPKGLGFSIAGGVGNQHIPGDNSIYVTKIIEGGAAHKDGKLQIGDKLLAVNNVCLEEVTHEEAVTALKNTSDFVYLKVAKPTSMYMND

| Binder | pKd [1] | pKd [2] | pKd [3] | pKd [4] | pKd [5] | pKd [6] | pKd [7] | pKd [8] | pKd [9] | pKd [10] | pKd [11] | pKd [12] | pKd [13] | pKd [14] | pKd [15] | pKd [16] | pKd [17] | pKd [18] | pKd [19] | pKd [20] | further results |
| --- | --- | --- | --- | --- | --- | --- | --- | --- | --- | --- | --- | --- | --- | --- | --- | --- | --- | --- | --- | --- | --- |
| B1 | below the threshold | below the threshold | below the threshold | below the threshold | 5.09 | 3.58 | 3.56 | 3.73 | 3.68 | 4.06 | 3.53 | below the threshold | 4.33 | below the threshold | 3.62 | below the threshold | below the threshold | below the threshold | below the threshold | 4.02 | pKd [21]: below the threshold; pKd [22]: below the threshold; pKd [23]: below the threshold; pKd [24]: 3.79; pKd [25]: below the threshold; pKd [26]: 4.4; pKd [27]: below the threshold |
| B2 | 3.52 | below the threshold | below the threshold | below the threshold | 5.11 | 4.04 | 5.43 | 4.13 | 4.55 | 4.56 | 4.3 | below the threshold | 4.89 | 5.18 | 3.87 | 3.5 | 4.64 | below the threshold | below the threshold | below the threshold | pKd [21]: 4.19; pKd [22]: 3.63; pKd [23]: 3.53; pKd [24]: 4.73; pKd [25]: 4.17; pKd [26]: below the threshold; pKd [27]: 3.59 |
| B3 | below the threshold | below the threshold | below the threshold | below the threshold | 5.01 | 3.86 | below the threshold | 3.65 | 3.79 | 3.73 | below the threshold | below the threshold | 4.06 | 3.78 | 3.74 | below the threshold | below the threshold | below the threshold | below the threshold | below the threshold | pKd [21]: below the threshold; pKd [22]: 3.52; pKd [23]: below the threshold; pKd [24]: below the threshold; pKd [25]: below the threshold; pKd [26]: 4.34; pKd [27]: below the threshold |
| B4 | 3.84 | below the threshold | below the threshold | 3.85 | 5.02 | 4.63 | 5.63 | 4.23 | 4.19 | 4.42 | 3.71 | below the threshold | 4.67 | 5.45 | below the threshold | below the threshold | 4.23 | 3.72 | below the threshold | below the threshold | pKd [21]: 4.07; pKd [22]: below the threshold; pKd [23]: below the threshold; pKd [24]: 4.66; pKd [25]: 4.14; pKd [26]: below the threshold; pKd [27]: below the threshold |
